This is an account of results in patent US20200399344A1 (SHATTUCK LABS, published 2020).

The target of experiment [1] is T1, recombinant mCD47 (mCD47-His) protein (mouse, UniProt Q61735 19-140, limits assumed).
T1 construct: not shown: His tag
T1 sequence (looked up): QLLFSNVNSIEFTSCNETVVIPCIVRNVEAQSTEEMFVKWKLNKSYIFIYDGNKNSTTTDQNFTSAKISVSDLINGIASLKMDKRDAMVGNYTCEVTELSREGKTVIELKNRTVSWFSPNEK
In words: sandwich ELISA, anti-NKG2a antibody coated, mCD47-His detection (FIG. 38). Here is the method: Increasing amounts of the mSIRPα-Fc-NKG2A chimeric protein was added and detected using mCD47-His. The CD86-Fc-NKG2A chimeric protein was used as a negative control.
To understand whether the mSIRPα-Fc-NKG2A chimeric protein can binds simultaneously to both anti-NKG2a and CD47, the following ELISA experiment was carried out. Briefly, and anti-NKG2a antibody was coated on plates. Increasing amounts of the mSIRPα-Fc-NKG2A and mCD48-Fc-NKG2A chimeric proteins were added to the plates for capture by the anti-NKG2a antibody. Further, recombinant mCD47 (mCD47-His) protein was added to the plate for capture by mSIRPα-Fc-NKG2A chimeric protein. The binding of the mCD47-His protein was detected using an anti-His HRP antibody.

In experiment [2] the target is T2, recombinant human CD28-His (rhCD28-His) (human, UniProt P10747 19-152).
T2 construct: also called Human CD28-His protein; recombinant CD28 protein; not shown: His tag
T2 sequence (P10747 19-152 limits assumed): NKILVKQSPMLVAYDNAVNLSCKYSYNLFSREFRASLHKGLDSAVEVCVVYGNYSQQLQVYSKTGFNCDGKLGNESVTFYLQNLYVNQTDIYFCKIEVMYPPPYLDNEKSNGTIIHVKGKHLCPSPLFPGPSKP
In words: ELISA: coat rhCD28-His (Acro), detection printed as Anti-hFc-HRP. The procedure:
To understand whether the CD80 and CD86 parts of the hCD80-Fc-NKG2A and hCD86-Fc-NKG2A chimeric protein can bind CD28, ELISA-based assays were performed. Briefly, recombinant CD28 protein was coated on plates and increasing amounts of the hCD80-Fc-NKG2A, hCD86-Fc-NKG2A, and mCD48-Fc-NKG2A chimeric proteins, and recombinant human CD86-Fc (rhCD86-Fc) protein was added to the plates for capture by the plate-bound recombinant CD28 protein. The mCD48-Fc-NKG2A chimeric protein, and recombinant human CDrhCD86-Fc protein was used as negative and positive controls, respectively. The chimeric proteins bound to the recombinant CD28 protein was detected using an anti-human Fc HRP.

For experiment [3], the target named is T3, HLA class I histocompatibility antigen, alpha chain E (HLA-E), plate-bound recombinant protein (human, UniProt P13747 22-305, limits assumed).
T3 construct: no tag named there; also called recombinant HLA-E protein
T3 sequence (P13747 22-305 limits assumed): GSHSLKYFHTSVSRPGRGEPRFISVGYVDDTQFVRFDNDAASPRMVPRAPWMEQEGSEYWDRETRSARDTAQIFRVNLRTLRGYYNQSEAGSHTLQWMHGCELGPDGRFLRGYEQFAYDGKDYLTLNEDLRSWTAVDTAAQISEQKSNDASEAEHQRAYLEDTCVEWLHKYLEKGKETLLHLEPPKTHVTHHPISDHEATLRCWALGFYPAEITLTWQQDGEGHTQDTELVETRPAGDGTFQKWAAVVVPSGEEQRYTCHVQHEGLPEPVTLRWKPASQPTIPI
In words: Dual binding ELISA: coat mHLA-E (Novus) as printed, detect Anti-mCD48 (R&D), HRP Anti-Goat HRP.

The target in experiment [4] is T4, anti-mFc IgG antibody (plate-bound).
T4 construct: also called anti-Fc antibody
In words: Fc ELISA: coat Anti-mFc (Jax), detect Anti-mFc-HRP (Jax). An excerpt: A mouse whole IgG was used to generate a standard curve.

Several values for one entry are separate records, joined by “and”; a condition that tells them apart may be missing. Identical values can stand only once.

B1: mouse CD48-Fc-NKG2A chimeric protein (Fc fusion)
chain: FQGHSIPDINATTGSNVTLKIHKDPLGPYKRITWLHTKNQKILEYNYNSTKTIFESEFKGRVYLEENNGALHISNVRKEDKGTYYMRVLRETENELKITLEVFDPVPKPSIEINKTEASTDSCHLRLSCEVKDQHVDYTWYESSGPFPKKSPGYVLDLIVTPQNKSTFYTCQVSNPVSSKNDTVYFTLPCDLARSVPRDCGCKPCICTVPEVSSVFIFPPKPKDVLTITLTPKVTCVVVDISKDDPEVQFSWFVDDVEVHTAQTQPREEQFNSTFRSVSELPIMHQDWLNGKEFKCRVNSAAFPAPIEKTISKTKGRPKAPQVYTIPPPKEQMAKDKVSLTCMITDFFPEDITVEWQWNGQPAENYKNTQPIMDTDGSYFVYSKLNVQKSNWEAGNTFTCSVLHEGLHNHHTEKSLSHSPGIIEGRMDTPYTEAKAQINSSMTRTHRDINYTLSSAQPCPHCPKEWISYSHNCYFIGMERKSWNDSLVSCISKNCSLLYIDSEEEQDFLQSLSLISWTGILRKGRGQPWVWKEDSIFKPKIAEILHDECNCAMMSASGLTADNCTTLHPYLCKCKFPI
notes: also called mCD48-Fc-NKG2A
Consider B1, for which the binding result in experiment [1] is “no binding”; in experiment [2], “no binding (tested: log[Agonist] about 2.7, ug/ml)”. The EC50 was 537 nM and 381 nM in experiment [3]; 0.938 nM and 0.436 nM in experiment [4].
